Experiments:
Test in all cases: capture ELISA on coated 1.14.4; relative to silent alanine substitutions
[1] = biological target: T1, hPD-L1_ECD.His point mutant Q83A (human, UniProt Q9NZQ7 19-238)
T1 construct: extracellular domain
Method: (§1) After interacting with the supernatant that contains quantified PD-L1 mutant or human/mouse PD-L1_ECD.His protein (Sino Biological, China), HRP conjugated anti-His antibody (1:5000; Rockland Immunochemicals, Pottstown, PA) was added as detection antibody. Absorbance was normalized according to the average of control mutants. After setting an additional cutoff to the binding fold change (<0.55), the final determined epitope residues were identified.
(§2) The observed binding reductions most probably resulted from the instability or even collapse of hPD-L1 structure after alanine substitutions. After setting an additional cutoff to the binding fold change (<0.55), the final determined epitope residues were listed in Table 3.

[2] = biological target: T2, hPD-L1_ECD.His point mutant Q77A (human, UniProt Q9NZQ7 19-238)
T2 construct: extracellular domain
T2 sequence (Q9NZQ7 19-238 Q77A): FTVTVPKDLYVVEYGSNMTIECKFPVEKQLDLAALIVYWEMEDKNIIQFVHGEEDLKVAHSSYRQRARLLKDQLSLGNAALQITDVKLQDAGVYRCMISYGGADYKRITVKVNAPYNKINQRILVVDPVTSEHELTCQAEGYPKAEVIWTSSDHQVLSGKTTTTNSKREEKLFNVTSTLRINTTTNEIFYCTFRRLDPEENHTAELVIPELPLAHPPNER
Method: as §1, §2

[3] = biological target: T3, hPD-L1_ECD.His point mutant K75A (human, UniProt Q9NZQ7 19-238)
T3 construct: extracellular domain
T3 sequence (Q9NZQ7 19-238 K75A): as the sequence (Q9NZQ7 19-238 Q77A) above, with K57A, A59Q counted along it
Method: as §1, §2

[4] = biological target: T4, hPD-L1_ECD.His point mutant K41A (human, UniProt Q9NZQ7 19-238)
T4 construct: extracellular domain
T4 sequence (Q9NZQ7 19-238 K41A): as the sequence (Q9NZQ7 19-238 Q77A) above, with K23A, A59Q counted along it
Method: as §1, §2

[5] = biological target: T5, hPD-L1_ECD.His point mutant K46A (human, UniProt Q9NZQ7 19-238)
T5 construct: extracellular domain
T5 sequence (Q9NZQ7 19-238 K46A): as the sequence (Q9NZQ7 19-238 Q77A) above, with K28A, A59Q counted along it
Method: as §1, §2

[6] = biological target: T6, hPD-L1_ECD.His point mutant L88A (human, UniProt Q9NZQ7 19-238)
T6 construct: extracellular domain
T6 sequence (Q9NZQ7 19-238 L88A): as the sequence (Q9NZQ7 19-238 Q77A) above, with A59Q, L70A counted along it
Method: as §1, §2

[7] = biological target: T7, hPD-L1_ECD.His point mutant Y123A (human, UniProt Q9NZQ7 19-238)
T7 construct: extracellular domain
T7 sequence (Q9NZQ7 19-238 Y123A): as the sequence (Q9NZQ7 19-238 Q77A) above, with A59Q, Y105A counted along it
Method: as §1, §2

[8] = biological target: T8, hPD-L1_ECD.His point mutant A121G (human, UniProt Q9NZQ7 19-238)
T8 construct: extracellular domain
T8 sequence (Q9NZQ7 19-238 A121G): as the sequence (Q9NZQ7 19-238 Q77A) above, with A59Q, A103G counted along it
Method: as §1, §2

[9] = biological target: T9, hPD-L1_ECD.His point mutant L94A (human, UniProt Q9NZQ7 19-238)
T9 construct: extracellular domain
T9 sequence (Q9NZQ7 19-238 L94A): as the sequence (Q9NZQ7 19-238 Q77A) above, with A59Q, L76A counted along it
Method: as §1, §2

[10] = biological target: T10, hPD-L1_ECD.His point mutant D122A (human, UniProt Q9NZQ7 19-238)
T10 construct: extracellular domain
T10 sequence (Q9NZQ7 19-238 D122A): as the sequence (Q9NZQ7 19-238 Q77A) above, with A59Q, D104A counted along it
Method: as §1, §2

[11] = biological target: T11, hPD-L1_ECD.His point mutant Y160A (human, UniProt Q9NZQ7 19-238)
T11 construct: extracellular domain
T11 sequence (Q9NZQ7 19-238 Y160A): as the sequence (Q9NZQ7 19-238 Q77A) above, with A59Q, Y142A counted along it
Method: as §1, §2

[12] = biological target: T12, hPD-L1_ECD.His point mutant E60A (human, UniProt Q9NZQ7 19-238)
T12 construct: extracellular domain
T12 sequence (Q9NZQ7 19-238 E60A): as the sequence (Q9NZQ7 19-238 Q77A) above, with E42A, A59Q counted along it
Method: as §1, §2

[13] = biological target: T13, hPD-L1_ECD.His point mutant D49A (human, UniProt Q9NZQ7 19-238)
T13 construct: extracellular domain
T13 sequence (Q9NZQ7 19-238 D49A): as the sequence (Q9NZQ7 19-238 Q77A) above, with D31A, A59Q counted along it
Method: as §1, §2

[14] = biological target: T14, hPD-L1_ECD.His point mutant L50A (human, UniProt Q9NZQ7 19-238)
T14 construct: extracellular domain
T14 sequence (Q9NZQ7 19-238 L50A): as the sequence (Q9NZQ7 19-238 Q77A) above, with L32A, A59Q counted along it
Method: as §1, §2

[15] = biological target: T15, hPD-L1_ECD.His point mutant Y118A (human, UniProt Q9NZQ7 19-238)
T15 construct: extracellular domain
T15 sequence (Q9NZQ7 19-238 Y118A): as the sequence (Q9NZQ7 19-238 Q77A) above, with A59Q, Y100A counted along it
Method: as §1, §2

[16] = biological target: T16, hPD-L1_ECD.His point mutant V68A (human, UniProt Q9NZQ7 19-238)
T16 construct: extracellular domain
T16 sequence (Q9NZQ7 19-238 V68A): as the sequence (Q9NZQ7 19-238 Q77A) above, with V50A, A59Q counted along it
Method: as §1, §2

[17] = biological target: T17, hPD-L1_ECD.His point mutant E218A (human, UniProt Q9NZQ7 19-238)
T17 construct: extracellular domain
T17 sequence (Q9NZQ7 19-238 E218A): as the sequence (Q9NZQ7 19-238 Q77A) above, with A59Q, E200A counted along it
Method: as §1, §2

[18] = biological target: T18, hPD-L1_ECD.His point mutant V76A (human, UniProt Q9NZQ7 19-238)
T18 construct: extracellular domain
T18 sequence (Q9NZQ7 19-238 V76A): as the sequence (Q9NZQ7 19-238 Q77A) above, with V58A, A59Q counted along it
Method: as §1, §2

[19] = biological target: T19, hPD-L1_ECD.His point mutant N35A (human, UniProt Q9NZQ7 19-238)
T19 construct: extracellular domain
T19 sequence (Q9NZQ7 19-238 N35A): as the sequence (Q9NZQ7 19-238 Q77A) above, with N17A, A59Q counted along it
Method: as §1, §2

[20] = biological target: T20, hPD-L1_ECD.His point mutant H78A (human, UniProt Q9NZQ7 19-238)
T20 construct: extracellular domain
T20 sequence (Q9NZQ7 19-238 H78A): as the sequence (Q9NZQ7 19-238 Q77A) above, with A59Q, H60A counted along it
Method: as §1, §2

[21] = biological target: T21, hPD-L1_ECD.His point mutant V44A (human, UniProt Q9NZQ7 19-238)
T21 construct: extracellular domain
T21 sequence (Q9NZQ7 19-238 V44A): as the sequence (Q9NZQ7 19-238 Q77A) above, with V26A, A59Q counted along it
Method: as §1, §2

[22] = biological target: T22, hPD-L1_ECD.His point mutant Y28A (human, UniProt Q9NZQ7 19-238)
T22 construct: extracellular domain
T22 sequence (Q9NZQ7 19-238 Y28A): as the sequence (Q9NZQ7 19-238 Q77A) above, with Y10A, A59Q counted along it
Method: as §1, §2

[23] = biological target: T23, hPD-L1_ECD.His point mutant D103A (human, UniProt Q9NZQ7 19-238)
T23 construct: extracellular domain
T23 sequence (Q9NZQ7 19-238 D103A): as the sequence (Q9NZQ7 19-238 Q77A) above, with A59Q, D85A counted along it
Method: as §1, §2

[24] = biological target: T24, hPD-L1_ECD.His point mutant T22A (human, UniProt Q9NZQ7 19-238)
T24 construct: extracellular domain
T24 sequence (Q9NZQ7 19-238 T22A): as the sequence (Q9NZQ7 19-238 Q77A) above, with T4A, A59Q counted along it
Method: as §1, §2

[25] = biological target: T25, hPD-L1_ECD.His point mutant T196A (human, UniProt Q9NZQ7 19-238)
T25 construct: extracellular domain
T25 sequence (Q9NZQ7 19-238 T196A): as the sequence (Q9NZQ7 19-238 Q77A) above, with A59Q, T178A counted along it
Method: as §1, §2

[26] = biological target: T26, hPD-L1_ECD.His point mutant I54A (human, UniProt Q9NZQ7 19-238)
T26 construct: extracellular domain
T26 sequence (Q9NZQ7 19-238 I54A): as the sequence (Q9NZQ7 19-238 Q77A) above, with I36A, A59Q counted along it
Method: as §1, §2

T1 sequence (Q9NZQ7 19-238 Q83A): as the sequence (Q9NZQ7 19-238 Q77A) above, with A59Q, Q65A counted along it

B1: 1.14.4 (antibody, V domains shown)
VH: EVQLLESGGGLVQPGGSLRLSCAASGFTFSSYAMSWVRQAPGKGLEWVSGISGSGGFTYYADSVKGRFTISRDNSKNTLYLQMNSLRAEDTAVYYCAKPPRGYNYGPFDYWGQGTLVTVSS
VL: SYVLTQPPSVSVAPGQTARITCGGNNIGSKSVHWYQQKPGQAPVLVVYDDSDRPSGIPERFSGSNSGNTATLTISRVEAGDEADYYCQVWDSSSDHVVFGGGTKLTVL
notes: Fully human monoclonal antibody with a human constant region of IgG4 isotype
**Q.** Which fold change [1] does the source give for B1 here?
**A.** The fold change was 0.982 fold.

**Q.** What about the fold change [2] of the same binder?
**A.** Its fold change is 1.01 fold.

**Q.** What about the fold change [3] of the same binder?
**A.** Its fold change is 1.01 fold.

**Q.** What about the fold change [4] of the same binder?
**A.** The fold change was 1.07 fold.

**Q.** What about the fold change [5] of the same binder?
**A.** The fold change was 1.08 fold.

**Q.** What about the fold change [6] of the same binder?
**A.** The fold change was 1.1 fold.

**Q.** And the fold change [7]?
**A.** The fold change was 1.11 fold.

**Q.** And the fold change [8]?
**A.** The fold change was 1.15 fold.

**Q.** What about the fold change [9] of the same binder?
**A.** The fold change was 1.19 fold.

**Q.** And the fold change [10]?
**A.** The fold change was 1.22 fold.

**Q.** What about the fold change [11] of the same binder?
**A.** The fold change was 0.505 fold.

**Q.** What about the fold change [12] of the same binder?
**A.** The fold change was 0.547 fold.

**Q.** What about the fold change [13] of the same binder?
**A.** The fold change was 0.603 fold.

**Q.** And the fold change [14]?
**A.** The fold change was 0.614 fold.

**Q.** What about the fold change [15] of the same binder?
**A.** Its fold change is 0.701 fold.

**Q.** What about the fold change [16] of the same binder?
**A.** Its fold change is 0.707 fold.

**Q.** What about the fold change [17] of the same binder?
**A.** Its fold change is 0.732 fold.

**Q.** What about the fold change [18] of the same binder?
**A.** The fold change was 0.76 fold.

**Q.** And the fold change [19]?
**A.** The fold change was 0.788 fold.

**Q.** And the fold change [20]?
**A.** Its fold change is 0.821 fold.

**Q.** And the fold change [21]?
**A.** The fold change was 0.837 fold.

**Q.** And the fold change [22]?
**A.** Its fold change is 0.842 fold.

**Q.** And the fold change [23]?
**A.** Its fold change is 0.863 fold.

**Q.** What about the fold change [24] of the same binder?
**A.** Its fold change is 0.875 fold.

**Q.** And the fold change [25]?
**A.** The fold change was 0.898 fold.

**Q.** What about the fold change [26] of the same binder?
**A.** Its fold change is 0.918 fold.
